This assay addresses SARS-CoV-2野生型(WT) S蛋白 (病毒颗粒上) (SARS-CoV-2, UniProt P0DTC2 14-1273). Kind of assay: cell-based or functional assay.

B1: 抗体09C7 (antibody, V domains shown)
VH: QVTLRESGPTLVKPKQTLTLTCTFSGFSLSTPGGGVGWIRQPPGKALEWLALIYWDDDKRYSPSLKSSLTITKDTSKNQVVLTMTNMDPVDTATYYCARLTAADTIFDCWGQGTLVTV
VL: QSALTQPASVSGSPGLSITISCTATSSDVGAYNYVSWYQQHPGQAPKLMIYDVSKRPSGVSNRFSGSKSANTASLTISGLQAEDEADYYCSSYTTTSVVFGGGTKLTVL
B1: the “IC50, pseudovirus neutralisation (luciferase, Huh-7 cells)” value was determined as 4 ng/mL.
